Series [1] relates to human mammary epithelial cells (HMEpC). As to the kind of experiment: Cytotoxicity, cell viability (CellTiter 96 AQueous One). The format is cell-based. The conditions noted are these: 0.125 up to 16 µM, 72 h, absorbance 490 nm, triplicate. The protocol:
Human mammary epithelial cells (HMEpC) acquired from Cell Applications, Inc. were authenticated and stored according to supplier’s instructions. Cells were cultured in mammary epithelial cell growth medium provided by the manufacturer. HMEpC cells were loaded in the wells of 96-well plates (~6,000 cells per well) and incubated overnight. Increasing amounts of pHLIP ICG dissolved in cell growth medium were added to cells to give the following final concentrations of pHLIP ICG with cells: 0.125, 0.25, 0.5, 1, 2, 4, 8 and 16 μM. After 48 and 72 hours of incubation, a colorimetric reagent (CellTiter 96 AQueous One Solution Assay, Promega) was added for 2 hours followed by measuring absorbance at 490 nm to assess cell viability. All samples were prepared in triplicate and each experiment was repeated several times.

Series [2] can be described thus: Single-dose and 7-days repeat i.v. toxicity with TK in Beagle dogs (GLP). It counts as in vivo. Particulars: for AUC(0-t) / C0: 2.16 mg/kg, daily i.v. bolus 2.16 mg/kg. The protocol:
The objectives of this GLP study, performed at CRL, were to determine the potential toxicity of pHLIP ICG, when given by single dose i.v. injection or once daily (i.v. injections) for 7 days in dogs, and to evaluate the potential reversibility of any findings following the single dose injection. In addition, toxicokinetic characteristics of pHLIP ICG were examined.
The following parameters and end points were evaluated in the study: mortality, clinical observations, body weights, food consumption, ophthalmology and electrocardiology assessments, clinical pathology parameters (hematology, coagulation, clinical chemistry, and urinalysis), toxicokinetic parameters, gross necropsy findings, organ weights, and histopathological examinations.

Series [3] in a line: Imaging of blood vessels in pigs. It counts as in vivo. The conditions noted are these: i.v. 0.052 + 0.12 + 0.24 mg/kg, Stryker 1688 AIM and SPY-PHI. The protocol:
Pigs (50 kg) received pHLIP ICG dissolved in PBS or PBS containing 5% Ethanol. Three doses of pHLIP ICG were administered (dose level 1 is 0.052 mg/kg of pHLIP ICG, dose level 2 is an additional administration of 0.12 mg/kg of pHLIP ICG and dose level 3 is an additional administration of 0.24 mg/kg of pHLIP ICG). Each dose was injected intravenously in one bolus followed by a saline flush. Endoscopical and exoscopical imaging was performed at the same time and up to 2 hrs after pHLIP ICG administration. Endoscopic imaging was carried out using the Stryker 1688 system with the L11 light source (808 nm excitation) and adjustable gain. […] Images and video were recorded on a Stryker Connected OR Hub device. […] The overlay mode captures an NIR frame and a white light frame and combines the two to allow surgeons to have the best fluorescence reference (green) while still operating. […] The ENV mode contains the white light frame data in a black/white mode and overlays the fluorescence signal in green to provide a hybrid mode that allows a higher signal-to-noise ratio view of the fluorescence image while still retaining enough of a view of the surrounding tissue to allow the surgeon to continue to operate. The SPY-PHI system has three infrared imaging modes: Overlay, Contrast, and CSF (color-segmented fluorescence). […]

The test system of series [4] is MDA-MB-231, 4T1, A549, LLC, M4A4, HeLa, UM-UC3 and LNCaP tumors. Briefly: Tumor targeting, NIR fluorescence imaging in different tumor models. The format is in vivo, athymic female nude mice. Particulars: 24 h after single i.v. 0.5 mg/kg, 8 tumor models, Stryker clinical imaging system, skin removed. The protocol:
(§1) Targeting of murine and human tumors was shown in 8 different tumor models in athymic female nude mice (strain Hsd Athymic Nude-Foxn1nu) ranging in age from 5 to 6 weeks (obtained from Envigo RMS, Inc). The following tumors were established by subcutaneous injection of 1 x 10^6 cells/0.1 ml/flank in flanks of athymic nude mice: HeLa (humans cervical adenocarcinoma), M4A4 (human epithelial carcinoma), 4T1 (murine breast tumor), A549 (human lung carcinoma), LLC (murine Lewis Lung carcinoma), UM-UC3 (human urinary bladder cancer), and 4 x 10^6 cells/0.1 ml/flank of LNCaP tumor (human prostate cancer). Human MDA-MB-231 (breast adenocarcinoma) tumors were established by injections of 1 x 10^6 cells/0.05 ml in the mammary fat pad. […] Finally, surgery was carried out under fluorescence-guidance to remove tumor and to image the tumor bed using the Stryker SPY-PHI handheld clinical imaging system.

The next series deals with implanted tumors. As to the kind of experiment: Fluorescence-guided resection of tumors, dose finding. It counts as in vivo, mice. Particulars: tail vein, doses 0.5 to 2.5 mg/kg, resection at 24 and 48 h, Stryker SPY-PHI. The protocol:
as §1

A short description of series [5]: Pharmacokinetics in Beagle dogs, single i.v. bolus injection. It counts as in vivo. The conditions noted are these: male, dog, plasma, iv, mean. On the procedure:
The objective of this study performed at CRL was to characterize the pharmacokinetic profile of pHLIP ICG in Beagle dogs following a single i.v. injection.
Blood samples were collected at 5, 15, and 30 minutes, and 1, 2, 4, 6, 8, 12, 24, and 48 hours post-dose for pharmacokinetic evaluation. Samples were placed on crushed wet ice until centrifugation, which was carried out immediately. The samples were centrifuged as per standard procedures. An aliquot of 250 µL of the resultant plasma was separated, transferred to 2.0 mL low-bind tubes containing 1.25 mL of methanol, mixed and frozen immediately over dry ice and transferred to a freezer at -80°C. At the time of analysis, samples were thawed, extracted, and analyzed via LC-MS/MS according to the validated protocol using pHLIPIS.

Consider 1 molecule from publication PMC7591906, “pHLIP ICG for delineation of tumors and blood flow during fluorescence-guided surgery” (Scientific Reports, 2020).

Peptide text beside a SMILES is read from it. * marks the point of attachment. X1 = CC1(C)C(/C=C/C=C/C=C/C=C2/N(CCCCCC(=O)NCCN3C(=O)CC(*)C3=O)c3ccc4ccccc4c3C2(C)C)=[N+](CCCCS(=O)(=O)[O-])c2ccc3ccccc3c21

Usually Cmax stands for the peak of the concentration-time curve. For orientation: clearance means the rate of elimination divided by the concentration. As usually defined, the AUC(0-inf) is the area under the concentration-time curve extrapolated to infinity. In the case of `CC(C)C[C@H](NC(=O)[C@H](Cc1ccc(O)cc1)NC(=O)[C@H](C)NC(=O)[C@H](CCCNC(=N)N)NC(=O)[C@H](Cc1c[nH]c2ccccc12)NC(=O)[C@@H]1CCCN1C(=O)[C@H](CC(N)=O)NC(=O)[C@H](CCC(N)=O)NC(=O)[C@H](CC(=O)O)NC(=O)[C@H](CC(=O)O)NC(=O)[C@H](CSC1CC(=O)N(CCNC(=O)CCCCCN2/C(=C/C=C/C=C/C=C/C3=[N+](CCCCS(=O)(=O)[O-])c4ccc5ccccc5c4C3(C)C)C(C)(C)c3c2ccc2ccccc32)C1=O)NC(=O)[C@H](C)N)C(=O)N[C@@H](CC(=O)O)C(=O)N[C@@H](CC(C)C)C(=O)N[C@@H](CC(C)C)C(=O)N[C@@H](Cc1ccccc1)C(=O)N1CCC[C@H]1C(=O)N[C@H](C(=O)N[C@@H](CC(=O)O)C(=O)N[C@H](C(=O)N[C@@H](CC(C)C)C(=O)N[C@@H](CC(C)C)C(=O)N[C@@H](CC(C)C)C(=O)N[C@@H](CC(=O)O)C(=O)N[C@@H](CC(C)C)C(=O)N[C@@H](CC(C)C)C(=O)N[C@@H](Cc1c[nH]c2ccccc12)C(=O)N[C@@H](C)C(=O)O)[C@@H](C)O)[C@@H](C)O` (stereo partly drawn) [pHLIP ICG] (H-AC(X1)DDQNPWRAYLDLLFPTDTLLLDLLWA-OH), the “Cytotoxic effect (cell viability)” value in series [1] was “did not show any cytotoxic effect at any tested concentration”. Also, in series [2] (2.16 mg/kg/day i.v. for 7 days, males and females, non-adverse), the Clinical chemistry changes entry is “minimal decreases in cholesterol”. For the same molecule, the AUC(0-t) in series [2] (Beagle, dog, in vivo, iv, mean, read-out: AUCTlast, day 1) worked out at 65400 ng·h/mL; in series [2] (Beagle, dog, in vivo, iv, mean, read-out: AUCTlast, day 7), 72300 ng·h/mL; in series [5] (single i.v. bolus 0.064 mg/kg, read-out: AUC0-48hr), 5450 ng·h/mL. Moreover, the C0 in series [2] (Beagle, dog, in vivo, iv, mean, read-out: C0, day 1) stood at 38400 ng/mL; in series [2] (Beagle, dog, in vivo, iv, mean, read-out: C0, day 7), 42700 ng/mL; in series [5] (single i.v. bolus 0.064 mg/kg, 3 males, read-out: C0 (theoretical concentration at time zero)) it was 1410 ng/mL. Moreover, the Cmax in series [2] (both sexes, Beagle, dog, in vivo, iv, 2.16 mg/kg/day for 7 days, mean, males and females, read-out: Cmax at NOAEL) was found to be 40300 ng/mL. The NOAEL entry in series [2] (males and females, 7 days repeated i.v. administration) was “above 2.16 mg/kg/day”. For the same molecule, the Overall toxicity finding entry in series [2] (single i.v. bolus 0.063, 1.08, 2.16 mg/kg or once daily for 7 days at 2.16 mg/kg/day) was “did not adversely affect the overall health or condition of the animals”. Also, in series [3], the “Visibility of illuminated blood vessels” value is “clearly visible at 2 h post-injection”. Besides, the Tumor targeting entry in series [4] is “Excellent tumor targeting”. For the same molecule, in the series on implanted tumors, the “Minimal dose sufficient for successful visualization of tumors” value stood at 0.5 mg/kg. The clearance in series [5] (single i.v. 0.064 mg/kg, read-out: Clearance (Cl) (converted)) was 0.193 mL/min/kg. Further, in series [5] (single i.v. 0.064 mg/kg, read-out: Elimination half-time (T1/2) (converted)), the half-life is 3.7 h. Moreover, the Vd in series [5] (single i.v. 0.064 mg/kg, read-out: Volume of distribution (Vz)) turned out to be 0.0616 L/kg. The same molecule came in with an AUC(0-inf) in series [5] (single i.v. bolus 0.064 mg/kg) of 5550 ng·h/mL.
